From PMC10415141

Assays:
MCM8 WB;MCM9 680 WB = MCM8 WB;MCM9 680 WB (Homo sapiens;Homo sapiens, UniProt Q9UJA3;Q9NXL9 1-840;1-680, E519Q|E415Q); assay: S1 nuclease protection
MCM8;MCM9 680 = MCM8;MCM9 680 (Homo sapiens;Homo sapiens, UniProt Q9UJA3;Q9NXL9 1-840;1-680, |); assay: S1 nuclease protection
MCM8;MCM9 680, sequence (Q9UJA3 whole entry, chain 1 of 2): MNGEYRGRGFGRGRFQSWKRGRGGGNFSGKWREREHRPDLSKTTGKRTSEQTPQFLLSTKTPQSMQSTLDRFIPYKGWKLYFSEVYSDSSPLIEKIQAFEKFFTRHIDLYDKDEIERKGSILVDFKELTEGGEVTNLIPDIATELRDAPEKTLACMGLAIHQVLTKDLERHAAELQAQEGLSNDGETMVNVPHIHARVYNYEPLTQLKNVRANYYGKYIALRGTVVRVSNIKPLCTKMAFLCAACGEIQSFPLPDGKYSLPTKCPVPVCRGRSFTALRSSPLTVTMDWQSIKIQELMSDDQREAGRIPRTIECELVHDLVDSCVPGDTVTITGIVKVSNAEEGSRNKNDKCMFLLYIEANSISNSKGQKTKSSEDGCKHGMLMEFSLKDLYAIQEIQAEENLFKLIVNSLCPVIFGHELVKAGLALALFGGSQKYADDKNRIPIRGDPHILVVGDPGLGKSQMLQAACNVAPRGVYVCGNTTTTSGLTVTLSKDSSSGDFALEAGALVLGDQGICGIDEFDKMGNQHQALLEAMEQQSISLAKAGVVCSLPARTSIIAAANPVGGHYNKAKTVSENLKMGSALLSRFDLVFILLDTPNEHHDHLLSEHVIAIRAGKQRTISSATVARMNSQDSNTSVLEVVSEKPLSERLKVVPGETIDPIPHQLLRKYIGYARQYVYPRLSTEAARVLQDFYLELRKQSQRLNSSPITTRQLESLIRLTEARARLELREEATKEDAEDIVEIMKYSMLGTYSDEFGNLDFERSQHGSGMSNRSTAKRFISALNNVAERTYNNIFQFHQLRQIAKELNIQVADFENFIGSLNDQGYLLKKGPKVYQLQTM
MCM8;MCM9 680, sequence (Q9NXL9 1-680, chain 2 of 2): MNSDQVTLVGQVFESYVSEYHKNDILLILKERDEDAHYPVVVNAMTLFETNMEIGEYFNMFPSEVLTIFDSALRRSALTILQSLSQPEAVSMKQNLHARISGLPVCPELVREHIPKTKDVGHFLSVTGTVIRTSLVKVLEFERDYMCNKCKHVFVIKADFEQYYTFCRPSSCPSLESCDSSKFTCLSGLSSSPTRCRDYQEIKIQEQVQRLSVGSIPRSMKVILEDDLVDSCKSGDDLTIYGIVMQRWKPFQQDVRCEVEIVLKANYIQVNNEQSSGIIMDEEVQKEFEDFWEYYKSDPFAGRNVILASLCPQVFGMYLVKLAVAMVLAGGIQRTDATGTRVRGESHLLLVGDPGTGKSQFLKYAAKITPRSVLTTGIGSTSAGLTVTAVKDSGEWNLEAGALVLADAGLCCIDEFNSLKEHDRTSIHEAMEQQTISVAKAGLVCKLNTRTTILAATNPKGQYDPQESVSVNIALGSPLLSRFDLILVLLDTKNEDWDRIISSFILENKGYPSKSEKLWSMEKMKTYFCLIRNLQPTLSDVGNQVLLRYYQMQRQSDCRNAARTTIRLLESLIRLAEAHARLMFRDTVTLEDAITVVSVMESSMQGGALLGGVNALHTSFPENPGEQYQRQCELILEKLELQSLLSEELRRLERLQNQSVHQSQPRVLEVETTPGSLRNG

MCM8 WB;MCM9 680 WB, sequence (Q9UJA3 whole entry E519Q, chain 1 of 2): as the sequence (Q9UJA3 whole entry, chain 1 of 2) above, with E519Q counted along it
MCM8 WB;MCM9 680 WB, sequence (Q9NXL9 1-680 E415Q, chain 2 of 2): as the sequence (Q9NXL9 1-680, chain 2 of 2) above, with E415Q counted along it

B1: 3' long arm fork (DNA228/15Cy3) (mixed)
DNA 1: TTTTTTTTTTGCCGGTCGGGGTGGGTGGGAAGCGTAGGGAGAGGTG
DNA 2: CACCTCTCCCTACGCTTCCCACCCACCCCGACCGGCATCTGCTATGGTACGCTGAGCGAGAGTAGC
binding result (MCM8 WB;MCM9 680 WB): binds
binding result (MCM8;MCM9 680): binds
